These results are taken from paper PMC3127822.

Test [1] concerns the target GST-tagged CC1 fragment from the dynactin subunit p150Glued. The experiment in a line: pull-down; 1 ug/ul GST-NudE or GST-CC1 with glutathione agarose 4B and pre-cleared whole brain lysate of P0 wild-type or Loa/Loa mice; phosphate-glutamate buffer (10 mM sodium phosphate, 100 mM sodium glutamate, pH 7.0, 1 mM MgSO4, 1 mM EDTA, 1 mM DTT, 0.2% NP-40), 4°C, 2 hours; western blot of supernatants and pellets. In general terms: A western blot detects proteins with antibodies after separation by electrophoresis.

Test [2] has as its target recombinant glutathione S-transferase (GST) NudE (UniProt Q9CZA6). The description is as above.
UniProt Q9CZA6, sequence (Q9CZA6 whole entry): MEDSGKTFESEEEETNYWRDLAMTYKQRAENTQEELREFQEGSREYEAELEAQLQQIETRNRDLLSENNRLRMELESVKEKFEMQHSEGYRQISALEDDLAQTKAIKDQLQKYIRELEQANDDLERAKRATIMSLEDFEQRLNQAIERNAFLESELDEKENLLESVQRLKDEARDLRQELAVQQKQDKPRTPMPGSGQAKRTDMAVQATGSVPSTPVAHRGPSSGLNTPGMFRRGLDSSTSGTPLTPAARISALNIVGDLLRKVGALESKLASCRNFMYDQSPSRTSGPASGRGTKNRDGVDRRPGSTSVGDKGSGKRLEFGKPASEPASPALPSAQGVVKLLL

As to “Loa/Loa mutant cytoplasmic dynein (from UniProt Q9JHU4 1-4644; O88485 1-628) (complex)”, the percent of heavy chain in the pellet in test [1] worked out at 40.7%. In addition, in test [2], the percent of heavy chain in the NudE pellet worked out at 57.7%.

Regarding “wild-type cytoplasmic dynein (from UniProt Q9JHU4 1-4644; O88485 1-628) (complex)”, in test [1], the percent of heavy chain in the pellet was found to be 45.3%. For the same substance, in test [2], the percent of heavy chain in the NudE pellet was found to be 66.2%.
